Positions count from the first letter of the chain named. Names may count otherwise.
T1: EsCas13d, nuclease-dead (Eubacterium siraeum, UniProt B0MS50, R295A;H300A;R849A;H854A)
T1 sequence: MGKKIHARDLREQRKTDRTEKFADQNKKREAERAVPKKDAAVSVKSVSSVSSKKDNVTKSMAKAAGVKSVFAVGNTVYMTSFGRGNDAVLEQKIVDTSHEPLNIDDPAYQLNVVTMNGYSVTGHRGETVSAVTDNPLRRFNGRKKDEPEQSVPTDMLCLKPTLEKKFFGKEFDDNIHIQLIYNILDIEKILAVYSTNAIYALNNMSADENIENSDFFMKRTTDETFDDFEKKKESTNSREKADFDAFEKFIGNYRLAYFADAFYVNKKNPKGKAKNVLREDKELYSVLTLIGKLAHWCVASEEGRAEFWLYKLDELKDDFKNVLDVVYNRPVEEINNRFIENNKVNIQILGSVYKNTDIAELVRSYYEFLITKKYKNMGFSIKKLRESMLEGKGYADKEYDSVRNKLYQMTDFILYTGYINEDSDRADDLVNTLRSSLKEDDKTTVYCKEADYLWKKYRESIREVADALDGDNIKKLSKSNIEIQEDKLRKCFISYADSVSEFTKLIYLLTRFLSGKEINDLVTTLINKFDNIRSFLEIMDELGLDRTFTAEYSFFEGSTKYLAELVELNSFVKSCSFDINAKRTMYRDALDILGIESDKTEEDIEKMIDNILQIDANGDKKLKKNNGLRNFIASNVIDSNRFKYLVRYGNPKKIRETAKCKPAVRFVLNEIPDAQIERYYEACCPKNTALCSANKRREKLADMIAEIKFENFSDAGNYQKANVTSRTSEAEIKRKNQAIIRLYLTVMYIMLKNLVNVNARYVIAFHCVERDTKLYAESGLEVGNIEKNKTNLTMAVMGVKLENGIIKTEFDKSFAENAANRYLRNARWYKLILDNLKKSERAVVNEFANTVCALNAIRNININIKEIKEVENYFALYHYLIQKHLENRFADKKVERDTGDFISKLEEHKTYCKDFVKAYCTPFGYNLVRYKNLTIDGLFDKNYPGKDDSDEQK

B1: target 2 MT 5'PFS CAU 3'PFS ACA (mixed)
RNA 1: CACCCGUGCAAAAUUGCAGGGGUCUAAAACCUUCUCCAAAUUGUUUCAUCCU
RNA 2: GGGAAUGGAUCCACAUCUACGAAUUCCAUAGGAUGAAACAAUUUGGAGAAGACAAGAUCGGAAGAGCACACGU
B2: target 2 MT 5'PFS GGG 3'PFS CUU (mixed)
RNA 1: B1 RNA 1
RNA 2: B1 RNA 2 with C27G, A28G, U29G, A52C, C53U, A54U
B3: target 2 MT 5'PFS GGG 3'PFS CUG (mixed)
RNA 1: B1 RNA 1
RNA 2: B1 RNA 2 with C27G, A28G, U29G, A52C, C53U, A54G
B4: target 2 MT 5'PFS AGA 3'PFS AUC (mixed)
RNA 1: B1 RNA 1
RNA 2: B1 RNA 2 with C27A, A28G, U29A, C53U, A54C
B5: target 2 MT 5'PFS CAU 3'PFS UCC (mixed)
RNA 1: B1 RNA 1
RNA 2: B1 RNA 2 with A52U, A54C
B6: target 2 MT 5'PFS AUG 3'PFS UCU (mixed)
RNA 1: B1 RNA 1
RNA 2: B1 RNA 2 with C27A, A28U, U29G, A52U, A54U
B7: target 2 MT 5'PFS CGA 3'PFS CCG (mixed)
RNA 1: B1 RNA 1
RNA 2: B1 RNA 2 with A28G, U29A, A52C, A54G
B8: target 2 MT 5'PFS CUU 3'PFS UAC (mixed)
RNA 1: B1 RNA 1
RNA 2: B1 RNA 2 with A28U, A52U, C53A, A54C
B9: target 2 MT 5'PFS CGA 3'PFS UAC (mixed)
RNA 1: B1 RNA 1
RNA 2: B1 RNA 2 with A28G, U29A, A52U, C53A, A54C
B10: target 2 MT 5'PFS UUA 3'PFS AUG (mixed)
RNA 1: B1 RNA 1
RNA 2: B1 RNA 2 with C27U, A28U, U29A, C53U, A54G
B11: target 2 MT 5'PFS CUU 3'PFS UAG (mixed)
RNA 1: B1 RNA 1
RNA 2: B1 RNA 2 with A28U, A52U, C53A, A54G
B12: target 2 MT 5'PFS GGG 3'PFS CUC (mixed)
RNA 1: B1 RNA 1
RNA 2: B1 RNA 2 with C27G, A28G, U29G, A52C, C53U, A54C
B13: target 2 MT 5'PFS GGG 3'PFS CUA (mixed)
RNA 1: B1 RNA 1
RNA 2: B1 RNA 2 with C27G, A28G, U29G, A52C, C53U
B14: target 2 MT 5'PFS CUU 3'PFS UAA (mixed)
RNA 1: B1 RNA 1
RNA 2: B1 RNA 2 with A28U, A52U, C53A
B15: target 2 MT 5'PFS AAA 3'PFS CUU (mixed)
RNA 1: B1 RNA 1
RNA 2: B1 RNA 2 with C27A, U29A, A52C, C53U, A54U
B16: target 2 MT 5'PFS ACU 3'PFS CGG (mixed)
RNA 1: B1 RNA 1
RNA 2: B1 RNA 2 with C27A, A28C, A52C, C53G, A54G
B17: target 2 MT 5'PFS AAG 3'PFS CCA (mixed)
RNA 1: B1 RNA 1
RNA 2: B1 RNA 2 with C27A, U29G, A52C
B18: target 2 MT 5'PFS UUA 3'PFS AUU (mixed)
RNA 1: B1 RNA 1
RNA 2: B1 RNA 2 with C27U, A28U, U29A, C53U, A54U
B19: target 2 MT 5'PFS AAU 3'PFS UUC (mixed)
RNA 1: B1 RNA 1
RNA 2: B1 RNA 2 with C27A, A52U, C53U, A54C
B20: target 2 MT 5'PFS UUA 3'PFS AUA (mixed)
RNA 1: B1 RNA 1
RNA 2: B1 RNA 2 with C27U, A28U, U29A, C53U
B21: target 2 MT 5'PFS CAU 3'PFS UCG (mixed)
RNA 1: B1 RNA 1
RNA 2: B1 RNA 2 with A52U, A54G
B22: target 2 MT 5'PFS AAG 3'PFS CCG (mixed)
RNA 1: B1 RNA 1
RNA 2: B1 RNA 2 with C27A, U29G, A52C, A54G
B23: target 2 MT 5'PFS CUU 3'PFS UAU (mixed)
RNA 1: B1 RNA 1
RNA 2: B1 RNA 2 with A28U, A52U, C53A, A54U
B24: target 2 MT 5'PFS ACU 3'PFS CGU (mixed)
RNA 1: B1 RNA 1
RNA 2: B1 RNA 2 with C27A, A28C, A52C, C53G, A54U
B25: target 2 MT 5'PFS ACU 3'PFS CGC (mixed)
RNA 1: B1 RNA 1
RNA 2: B1 RNA 2 with C27A, A28C, A52C, C53G, A54C
B26: target 2 MT 5'PFS UUA 3'PFS AUC (mixed)
RNA 1: B1 RNA 1
RNA 2: B1 RNA 2 with C27U, A28U, U29A, C53U, A54C
B27: target 2 MT 5'PFS CAU 3'PFS ACC (mixed)
RNA 1: B1 RNA 1
RNA 2: B1 RNA 2 with A54C
B28: target 2 MT 5'PFS CGA 3'PFS CCA (mixed)
RNA 1: B1 RNA 1
RNA 2: B1 RNA 2 with A28G, U29A, A52C
B29: target 2 MT 5'PFS ACU 3'PFS CGA (mixed)
RNA 1: B1 RNA 1
RNA 2: B1 RNA 2 with C27A, A28C, A52C, C53G
B30: target 2 MT 5'PFS AAU 3'PFS UUA (mixed)
RNA 1: B1 RNA 1
RNA 2: B1 RNA 2 with C27A, A52U, C53U
B31: target 2 MT 5'PFS AAU 3'PFS UUU (mixed)
RNA 1: B1 RNA 1
RNA 2: B1 RNA 2 with C27A, A52U, C53U, A54U
B32: target 2 MT 5'PFS AGA 3'PFS AUG (mixed)
RNA 1: B1 RNA 1
RNA 2: B1 RNA 2 with C27A, A28G, U29A, C53U, A54G
B33: target 2 MT 5'PFS CAU 3'PFS UCA (mixed)
RNA 1: B1 RNA 1
RNA 2: B1 RNA 2 with A52U
B34: target 2 MT 5'PFS AGA 3'PFS AUA (mixed)
RNA 1: B1 RNA 1
RNA 2: B1 RNA 2 with C27A, A28G, U29A, C53U
B35: target 2 MT 5'PFS GGU 3'PFS AGU (mixed)
RNA 1: B1 RNA 1
RNA 2: B1 RNA 2 with C27G, A28G, C53G, A54U
B36: target 1 G5C,A9U (mixed)
RNA 1: CACCCGUGCAAAAAUGCAGGGGUCUAAAACUGAGCGGAUAACCUCUCUAUGG
RNA 2: GGGAAUGGAUCCACAUCUACGAAUUCGUACCAUAGAGAGGUUUUCCCCUCACCGAGAUCGGAAGAGCACACGU
B37: target 1 insG 3' of 22,insG 3' of 4 (mixed)
RNA 1: B36 RNA 1
RNA 2: GGGAAUGGAUCCACAUCUACGAAUUCGUACGCAUAGAGAGGUUAUCCGCGUCACCGAGAUCGGAAGAGCACACGU
B38: target 1 insG 3' of 18,insG 3' of 6 (mixed)
RNA 1: B36 RNA 1
RNA 2: B37 RNA 2 with G31C, C32A, A33U, U34A, A35G, C49G, G50C

target: T1, EsCas13d, nuclease-dead; assay: crRNA (strand 1, pre-loaded); Mg2+; 40 mM Tris-HCl pH 7.5, 150 mM NaCl, 6 mM MgCl2, 1 mM DTT, 0.1% Tween-20, 0.2 mg/ml BSA; 25 C; 10 min per concentration, then washed; settings: tags: His6-TwinStrep-SUMO cleaved; N-terminal SNAP kept (SNAP-Surface 488); label: 3' end held by stalled T7 RNA polymerase

Going from B1 to B2, the Kd rises from 6 ± 1.2 nM to 14.2 ± 1.4 nM (2.4-fold). The first binds more tightly here.

B3 and B4 are within error of each other in Kd: 11.7 ± 1 nM for the first, 9.6 ± 2.3 nM for the second.

Going from B5 to B6, the Kd rises from 8.1 ± 0.7 nM to 17.4 ± 2.6 nM (2.1-fold). The first binds more tightly here.

First: B7
Second: B8
The Kd of the first is 2.3-fold higher: 11.1 ± 1.6 nM for the first, 4.9 ± 0.6 nM for the second.

Compared with B9, B10 is 5.3-fold higher in Kd: 9.5 ± 1.9 nM for the first, 50 ± 13 nM for the second. The first binds more tightly here.

First: B11
Second: B12
The Kd of the first is 3.6-fold lower: 4.3 ± 0.8 nM for the first, 15.5 ± 1.6 nM for the second. The first binds more tightly here.

First: B13
Second: B14
The Kd of the first is 3.6-fold higher: 10.9 ± 1.9 nM for the first, 3 ± 0.32 nM for the second. The second binds more tightly here.

B15 and B16 are within error of each other in Kd: 3.9 ± 0.6 nM for the first, 3.47 ± 0.28 nM for the second.

Compared with B17, B18 is 2.1-fold higher in Kd: 8.7 ± 1.6 nM for the first, 18.5 ± 1.4 nM for the second. The first binds more tightly here.

First: B19
Second: B20
The Kd of the first is 2.8-fold lower: 9.7 ± 1.5 nM for the first, 27 ± 6 nM for the second. The first binds more tightly here.

First: B21
Second: B22
The Kd of the first is 1.7-fold lower: 3.8 ± 0.4 nM for the first, 6.3 ± 0.9 nM for the second.

First: B23
Second: B24
The Kd of the first is 2.5-fold lower: 3.22 ± 0.27 nM for the first, 8.1 ± 1.3 nM for the second.

First: B25
Second: B26
The Kd of the first is 4.4-fold lower: 7.1 ± 1 nM for the first, 31 ± 5 nM for the second.

First: B27
Second: B28
The Kd of the first is 5.3-fold lower: 5.9 ± 0.7 nM for the first, 31 ± 8 nM for the second.

Going from B29 to B30, the Kd rises from 4.1 ± 0.4 nM to 6.5 ± 0.8 nM (1.6-fold).

Going from B31 to B32, the Kd falls from 12.4 ± 2.5 nM to 8.2 ± 1.3 nM (1.5-fold).

B33 and B34 are within error of each other in Kd: 6.4 ± 1.5 nM for the first, roughly 5.7 nM for the second.

B35 and B36 are within 1.5-fold of each other in Kd: 17.7 ± 2.6 nM for the first, 11.8 ± 0.6 nM for the second.

Going from B37 to B38, the Kd rises from 26.2 ± 2.8 nM to 71 ± 28 nM (2.7-fold). The first binds more tightly here.

Source: publication PMC10786891, “Massively parallel profiling of RNA-targeting CRISPR-Cas13d”
